In the supplement of paper PMC10065799, “High-throughput profiling of sequence recognition by tyrosine kinases and SH2 domains using bacterial peptide display” (eLife, 2023):

Columns and labels:
Fes = Fes (UniProt P07332); experiment: phosphorylation enrichment, bacterial display (enrichment ratio); higher = better substrate or ligand; peptides without Tyr show the background
FGFR3 = FGFR3 (UniProt P22607); experiment: as above
EPHB1 = EPHB1 (UniProt P54762); experiment: as above
Hck = Hck (UniProt P08631); experiment: as above
Hck, sequence (P08631 whole entry, looked up): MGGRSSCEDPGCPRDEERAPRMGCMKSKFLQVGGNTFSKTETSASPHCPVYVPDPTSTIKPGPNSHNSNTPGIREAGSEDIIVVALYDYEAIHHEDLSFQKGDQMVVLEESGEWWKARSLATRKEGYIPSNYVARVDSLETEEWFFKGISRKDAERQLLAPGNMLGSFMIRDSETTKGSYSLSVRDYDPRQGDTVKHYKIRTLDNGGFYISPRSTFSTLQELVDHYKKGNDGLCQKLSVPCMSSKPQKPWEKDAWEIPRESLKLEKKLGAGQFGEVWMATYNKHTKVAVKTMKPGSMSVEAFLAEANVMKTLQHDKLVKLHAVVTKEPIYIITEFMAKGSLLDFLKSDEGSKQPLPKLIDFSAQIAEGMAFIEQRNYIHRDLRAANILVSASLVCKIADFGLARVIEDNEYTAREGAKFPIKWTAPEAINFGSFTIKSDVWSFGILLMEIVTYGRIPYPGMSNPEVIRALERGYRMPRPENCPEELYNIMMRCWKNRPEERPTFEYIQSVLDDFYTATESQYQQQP

Fer (mouse) = experiment: as above
Fyn = Fyn (UniProt P06241); experiment: as above
Fyn, sequence (P06241 whole entry, looked up): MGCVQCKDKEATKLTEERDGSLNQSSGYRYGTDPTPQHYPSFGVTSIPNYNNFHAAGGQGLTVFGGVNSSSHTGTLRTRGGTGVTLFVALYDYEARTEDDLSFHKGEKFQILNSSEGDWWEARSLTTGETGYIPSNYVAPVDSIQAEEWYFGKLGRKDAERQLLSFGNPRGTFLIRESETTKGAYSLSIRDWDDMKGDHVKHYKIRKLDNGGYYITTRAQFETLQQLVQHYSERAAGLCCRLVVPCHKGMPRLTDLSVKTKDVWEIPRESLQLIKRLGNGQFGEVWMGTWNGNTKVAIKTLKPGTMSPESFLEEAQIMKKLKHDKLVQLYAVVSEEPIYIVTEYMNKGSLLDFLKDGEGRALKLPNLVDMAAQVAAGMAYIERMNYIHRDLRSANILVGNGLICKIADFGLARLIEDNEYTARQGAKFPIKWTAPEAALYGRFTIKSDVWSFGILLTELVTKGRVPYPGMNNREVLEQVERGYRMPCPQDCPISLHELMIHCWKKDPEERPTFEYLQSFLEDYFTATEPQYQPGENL

Jak2 = Jak2 (UniProt O60674); experiment: as above
Jak2, sequence (O60674 whole entry, looked up): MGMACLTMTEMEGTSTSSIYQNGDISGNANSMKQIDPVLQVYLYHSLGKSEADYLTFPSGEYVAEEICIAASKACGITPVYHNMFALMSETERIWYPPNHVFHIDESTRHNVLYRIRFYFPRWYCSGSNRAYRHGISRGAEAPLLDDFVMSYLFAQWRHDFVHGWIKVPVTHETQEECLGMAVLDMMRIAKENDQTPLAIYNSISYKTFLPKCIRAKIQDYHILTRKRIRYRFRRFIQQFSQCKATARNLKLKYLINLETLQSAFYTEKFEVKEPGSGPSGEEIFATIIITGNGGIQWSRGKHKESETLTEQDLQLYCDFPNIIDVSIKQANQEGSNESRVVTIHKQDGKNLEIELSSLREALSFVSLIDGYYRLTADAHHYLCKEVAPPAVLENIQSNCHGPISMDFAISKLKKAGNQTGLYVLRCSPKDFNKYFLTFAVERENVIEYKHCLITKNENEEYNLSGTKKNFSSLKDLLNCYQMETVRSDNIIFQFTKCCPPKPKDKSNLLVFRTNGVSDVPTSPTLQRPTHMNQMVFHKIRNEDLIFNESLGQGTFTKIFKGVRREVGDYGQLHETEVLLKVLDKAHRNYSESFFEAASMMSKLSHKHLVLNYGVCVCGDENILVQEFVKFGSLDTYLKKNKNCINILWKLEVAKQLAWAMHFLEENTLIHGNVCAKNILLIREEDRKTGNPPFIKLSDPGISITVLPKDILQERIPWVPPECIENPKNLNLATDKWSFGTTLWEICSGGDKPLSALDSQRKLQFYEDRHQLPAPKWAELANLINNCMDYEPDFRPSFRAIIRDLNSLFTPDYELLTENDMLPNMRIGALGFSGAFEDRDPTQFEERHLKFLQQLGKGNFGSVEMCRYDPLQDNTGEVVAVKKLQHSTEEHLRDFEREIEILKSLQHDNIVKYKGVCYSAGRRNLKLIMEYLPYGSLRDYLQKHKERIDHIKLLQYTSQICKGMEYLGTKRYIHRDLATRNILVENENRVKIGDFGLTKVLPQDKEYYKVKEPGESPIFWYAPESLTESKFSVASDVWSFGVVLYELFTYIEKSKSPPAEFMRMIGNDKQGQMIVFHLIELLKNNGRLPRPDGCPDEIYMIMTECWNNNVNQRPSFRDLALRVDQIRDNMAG

c-Abl (mouse) = experiment: as above
FGFR1 = FGFR1 (UniProt P11362); experiment: as above
FGFR1, sequence (P11362 whole entry, looked up): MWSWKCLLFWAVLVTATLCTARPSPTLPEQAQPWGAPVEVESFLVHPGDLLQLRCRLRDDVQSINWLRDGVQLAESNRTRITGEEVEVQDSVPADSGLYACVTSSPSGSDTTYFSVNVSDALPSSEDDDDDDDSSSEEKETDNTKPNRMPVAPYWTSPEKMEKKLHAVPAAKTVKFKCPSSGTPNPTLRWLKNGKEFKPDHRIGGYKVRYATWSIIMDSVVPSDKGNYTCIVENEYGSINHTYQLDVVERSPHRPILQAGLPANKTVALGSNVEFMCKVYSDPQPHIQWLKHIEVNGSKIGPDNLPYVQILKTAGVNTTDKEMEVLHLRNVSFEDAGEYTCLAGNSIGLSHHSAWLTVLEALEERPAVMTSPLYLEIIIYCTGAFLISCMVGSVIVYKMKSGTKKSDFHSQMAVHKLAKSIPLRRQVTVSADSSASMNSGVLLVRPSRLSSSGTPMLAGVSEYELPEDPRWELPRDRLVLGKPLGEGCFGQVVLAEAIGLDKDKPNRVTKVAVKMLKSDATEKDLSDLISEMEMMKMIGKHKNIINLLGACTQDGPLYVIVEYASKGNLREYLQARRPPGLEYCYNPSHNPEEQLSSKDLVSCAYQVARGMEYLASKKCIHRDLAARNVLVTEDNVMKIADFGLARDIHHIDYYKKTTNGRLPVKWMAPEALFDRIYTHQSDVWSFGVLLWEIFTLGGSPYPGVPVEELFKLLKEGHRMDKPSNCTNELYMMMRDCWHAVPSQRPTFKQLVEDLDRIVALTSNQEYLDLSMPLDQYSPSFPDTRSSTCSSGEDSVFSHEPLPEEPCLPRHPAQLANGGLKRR

MERTK = MERTK (UniProt Q12866); experiment: as above
AncSZ = experiment: as above
EPHB2 = EPHB2 (UniProt P29323); experiment: as above
EPHB2, sequence (P29323 whole entry, looked up): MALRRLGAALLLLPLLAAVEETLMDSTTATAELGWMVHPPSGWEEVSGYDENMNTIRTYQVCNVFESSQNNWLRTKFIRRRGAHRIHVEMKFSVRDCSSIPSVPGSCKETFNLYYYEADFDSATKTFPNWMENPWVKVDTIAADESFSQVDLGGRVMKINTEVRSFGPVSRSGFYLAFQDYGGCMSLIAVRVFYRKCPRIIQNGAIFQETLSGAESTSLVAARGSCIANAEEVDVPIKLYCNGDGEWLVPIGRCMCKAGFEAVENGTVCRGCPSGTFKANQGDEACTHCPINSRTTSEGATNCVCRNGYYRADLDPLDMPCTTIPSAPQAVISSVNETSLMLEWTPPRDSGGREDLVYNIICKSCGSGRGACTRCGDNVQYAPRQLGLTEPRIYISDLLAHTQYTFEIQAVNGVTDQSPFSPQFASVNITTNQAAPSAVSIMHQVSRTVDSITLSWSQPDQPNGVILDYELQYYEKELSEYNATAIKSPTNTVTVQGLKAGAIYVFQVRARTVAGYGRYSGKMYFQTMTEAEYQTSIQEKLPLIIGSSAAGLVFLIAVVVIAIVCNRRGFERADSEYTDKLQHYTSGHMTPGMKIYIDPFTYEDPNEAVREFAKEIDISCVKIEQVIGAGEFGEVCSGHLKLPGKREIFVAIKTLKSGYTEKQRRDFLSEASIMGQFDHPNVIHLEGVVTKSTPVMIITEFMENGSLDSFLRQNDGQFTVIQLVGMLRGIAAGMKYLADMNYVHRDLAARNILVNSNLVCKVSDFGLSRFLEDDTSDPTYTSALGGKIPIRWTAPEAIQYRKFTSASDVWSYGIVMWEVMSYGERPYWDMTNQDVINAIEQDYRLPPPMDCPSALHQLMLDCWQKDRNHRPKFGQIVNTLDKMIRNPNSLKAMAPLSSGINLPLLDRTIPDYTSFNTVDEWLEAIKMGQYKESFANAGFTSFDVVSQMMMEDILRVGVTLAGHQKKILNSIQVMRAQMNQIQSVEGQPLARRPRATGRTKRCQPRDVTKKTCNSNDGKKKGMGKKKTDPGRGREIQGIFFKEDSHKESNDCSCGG

c-Src = experiment: as above
Grb2 SH2 = Grb2 SH2 (UniProt P62993); experiment: SH2 binding enrichment of the phosphorylated peptide, bacterial display (enrichment ratio); higher = better substrate or ligand; peptides without Tyr show the background
SHP2-C SH2 = experiment: as above
c-Src SH2 = experiment: as above
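Wherever SH2 binding enrichment of the phosphorylated peptide, bacterial display is given: peptide library displayed on the E. coli surface as eCPX fusions, selected cells deep-sequenced, score is each peptide's frequency after selection divided by its frequency in the input.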
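Wherever phosphorylation enrichment, bacterial display is given: 11-residue human phosphosite peptides and single-mutation variants displayed on the E. coli surface, counted by deep sequencing, each peptide's frequency after selection divided by its frequency in the unselected input library; frequency after pTyr selection over input frequency; kinase dosed for 20-30% of maximal phosphorylation in three min.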

EPHB1, sequence (P54762 whole entry, looked up): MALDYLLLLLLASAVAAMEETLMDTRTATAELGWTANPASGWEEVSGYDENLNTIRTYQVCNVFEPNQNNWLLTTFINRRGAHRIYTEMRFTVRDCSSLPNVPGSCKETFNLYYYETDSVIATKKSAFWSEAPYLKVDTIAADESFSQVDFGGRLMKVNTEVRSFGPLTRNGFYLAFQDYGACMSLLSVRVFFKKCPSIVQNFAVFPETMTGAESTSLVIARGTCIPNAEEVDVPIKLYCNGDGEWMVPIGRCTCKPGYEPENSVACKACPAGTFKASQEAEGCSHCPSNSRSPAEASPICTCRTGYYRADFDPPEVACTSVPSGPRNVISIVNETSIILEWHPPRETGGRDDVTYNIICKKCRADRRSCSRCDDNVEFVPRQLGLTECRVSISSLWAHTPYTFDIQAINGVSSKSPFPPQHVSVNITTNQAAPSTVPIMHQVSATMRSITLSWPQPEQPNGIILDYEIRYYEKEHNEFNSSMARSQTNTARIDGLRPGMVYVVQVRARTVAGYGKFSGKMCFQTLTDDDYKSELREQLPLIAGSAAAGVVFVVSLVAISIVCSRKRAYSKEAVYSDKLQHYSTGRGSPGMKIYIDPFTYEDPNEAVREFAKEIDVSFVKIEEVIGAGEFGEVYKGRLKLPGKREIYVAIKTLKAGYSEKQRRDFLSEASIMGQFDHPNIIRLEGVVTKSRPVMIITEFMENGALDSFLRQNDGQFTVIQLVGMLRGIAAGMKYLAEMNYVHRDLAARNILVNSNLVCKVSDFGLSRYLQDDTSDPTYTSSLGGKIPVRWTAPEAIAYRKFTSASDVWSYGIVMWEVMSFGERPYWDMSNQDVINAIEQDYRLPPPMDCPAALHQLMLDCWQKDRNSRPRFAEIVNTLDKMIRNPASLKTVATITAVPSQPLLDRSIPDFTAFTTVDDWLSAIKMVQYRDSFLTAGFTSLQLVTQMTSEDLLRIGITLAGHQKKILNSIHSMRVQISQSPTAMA

| Sequence | SH2 binding enrichment (Grb2 SH2) | SH2 binding enrichment (SHP2-C SH2) | SH2 binding enrichment (c-Src SH2) | phosphorylation enrichment (Fes) | phosphorylation enrichment (FGFR3) | phosphorylation enrichment (EPHB1) | phosphorylation enrichment (Hck) | phosphorylation enrichment (Fer (mouse)) | phosphorylation enrichment (Fyn) | phosphorylation enrichment (Jak2) | phosphorylation enrichment (c-Abl (mouse)) | phosphorylation enrichment (FGFR1) | phosphorylation enrichment (MERTK) | phosphorylation enrichment (AncSZ) | phosphorylation enrichment (EPHB2) | phosphorylation enrichment (c-Src) |
| --- | --- | --- | --- | --- | --- | --- | --- | --- | --- | --- | --- | --- | --- | --- | --- | --- |
| RKPDIYERLAS [MCM4_Y459] | 0.734 | 0.71 | 0.643 | 1.2 | 0.798 | 0.927 | 4.52 | 0.943 | 0.99 | 0.702 | 0.901 | 0.671 | 1.65 | 0.846 | 0.903 | 2.04 |
| RLEGVYGNNID [PTEN_Y46_R47G] | 0.713 | 0.444 | 0.408 | 0.603 | 0.381 | 0.452 | 0.94 | 0.621 | 1.57 | 0.557 | 0.384 | 0.485 | 0.657 | 0.404 | 0.311 | 1.26 |
| RLLVVYRWTQR [HBB_Y36_P37R] | 0.663 | 0.799 | 0.493 | 1.25 | 0.761 | 0.372 | 0.567 | 0.711 | 0.639 | 0.926 | 0.601 | 0.652 | 0.463 | 1.56 | 0.787 | 0.402 |
| RLNWIYYKDQT [RS1_Y165] | 1.11 | 0.801 | 0.735 | 2.66 | 0.98 | 0.985 | 0.947 | 0.844 | 0.687 | 1.78 | 0.676 | 0.643 | 0.672 | 1.53 | 0.712 | 0.616 |
| RPFFLYVAFHN [SGSH_Y174_D179N] | 0.933 | 0.515 | 0.478 | 0.918 | 0.837 | 0.74 | 0.327 | 0.405 | 0.321 | 0.762 | 0.472 | 0.564 | 0.453 | 1.04 | 0.491 | 0.33 |
| RPFSPYIIRGM [LRP5_Y1531_R1529S_YF] | 0.834 | 0.81 | 0.479 | 0.991 | 0.71 | 0.752 | 0.719 | 0.494 | 0.98 | 0.92 | 0.595 | 0.785 | 0.494 | 1.29 | 0.535 | 0.886 |
| RPIEVYLCPEE [E2F3_Y349_G344R] | 0.918 | 0.809 | 0.559 | 3.24 | 1.3 | 1.49 | 1.04 | 0.938 | 1.06 | 3.12 | 1.97 | 1.11 | 0.975 | 3.41 | 0.998 | 2.55 |
| RQQEDYLLYKQ [RARRES1_Y159] | 0.821 | 0.842 | 0.561 | 1.65 | 0.86 | 0.793 | 0.969 | 1.1 | 0.547 | 2.46 | 1.39 | 0.743 | 0.631 | 1.32 | 0.823 | 0.941 |
| RQSTLYSFFPT [MSH6_Y8_K13T] | 1 | 1.4 | 0.752 | 1.26 | 7.04 | 16.1 | 9.63 | 14.2 | 7.89 | 0.824 | 3.62 | 9.72 | 16.8 | 1.35 | 21.2 | 7.3 |
| RSSGGYEPRGC [FUS_Y239_R244C] | 0.913 | 0.872 | 0.509 | 0.533 | 0.538 | 0.227 | 0.258 | 0.277 | 0.351 | 0.499 | 0.539 | 0.371 | 0.261 | 0.439 | 0.274 | 0.376 |
| RSSKMYPKTRS [LPL_Y329_L330P] | 0.916 | 0.556 | 0.486 | 0.675 | 0.624 | 0.359 | 0.509 | 0.342 | 0.502 | 1.43 | 1.2 | 0.547 | 0.562 | 0.601 | 0.151 | 0.614 |
| RSSNTYTLTDV [ALCAM_Y298] | 0.82 | 0.689 | 1.19 | 0.921 | 0.705 | 0.544 | 0.951 | 1.04 | 1.6 | 0.805 | 0.669 | 0.519 | 0.766 | 0.766 | 0.561 | 1.58 |
| RTLIRYANLSN [BEST1_Y131_G135S] | 6.11 | 8.49 | 1.59 | 1.02 | 0.757 | 0.733 | 0.675 | 0.566 | 0.79 | 0.792 | 0.654 | 0.801 | 0.631 | 0.774 | 0.71 | 0.65 |
| RTLSEYARRHV [RERE_Y1259_P1262R] | 0.826 | 0.567 | 0.448 | 0.629 | 0.494 | 0.353 | 0.461 | 0.404 | 0.338 | 0.596 | 2.14 | 0.393 | 0.572 | 0.613 | 0.373 | 0.446 |
| RVLHNYLVWCV [ECEL1_Y400_R404C] | 0.921 | 0.901 | 0.643 | 1.5 | 1.02 | 1.02 | 0.611 | 0.647 | 0.535 | 1.42 | 0.933 | 0.773 | 0.631 | 1.25 | 0.752 | 0.561 |
| SAAAIYMVRHP [PMP22_Y117_T118M] | 0.884 | 1.02 | 0.68 | 0.77 | 0.519 | 2.45 | 7.71 | 0.53 | 4.97 | 0.587 | 1.65 | 0.425 | 3.25 | 0.756 | 1.82 | 5.44 |
| SARFRYLLAEK [LDHB_Y173_M175L] | 0.766 | 0.593 | 0.437 | 0.697 | 0.55 | 0.35 | 0.508 | 0.452 | 0.514 | 0.641 | 0.783 | 0.439 | 0.498 | 0.724 | 0.477 | 0.515 |
| SASRSYSRSRS [SRRM4_Y549] | 0.622 | 0.451 | 0.424 | 0.594 | 0.497 | 0.466 | 0.503 | 0.505 | 0.518 | 0.58 | 0.659 | 0.426 | 0.589 | 0.635 | 0.521 | 0.588 |
| SDGGCYEQLFV [MC4R_Y41] | 0.853 | 0.745 | 0.68 | 1.09 | 0.837 | 0.764 | 2.14 | 9.7 | 1.32 | 0.991 | 0.871 | 0.663 | 0.806 | 1.69 | 0.74 | 1.76 |

Continued, in another order:

| SH2 binding enrichment (Grb2 SH2) | SH2 binding enrichment (SHP2-C SH2) | SH2 binding enrichment (c-Src SH2) | Sequence | phosphorylation enrichment (Fes) | phosphorylation enrichment (FGFR3) | phosphorylation enrichment (EPHB1) | phosphorylation enrichment (Hck) | phosphorylation enrichment (Fer (mouse)) | phosphorylation enrichment (Fyn) | phosphorylation enrichment (Jak2) | phosphorylation enrichment (c-Abl (mouse)) | phosphorylation enrichment (FGFR1) | phosphorylation enrichment (MERTK) | phosphorylation enrichment (AncSZ) | phosphorylation enrichment (EPHB2) | phosphorylation enrichment (c-Src) |
| --- | --- | --- | --- | --- | --- | --- | --- | --- | --- | --- | --- | --- | --- | --- | --- | --- |
| 0.955 | 0.553 | 0.452 | RLGLQYSQGLV [EIF2B4_Y214] | 1.31 | 0.851 | 0.676 | 0.588 | 0.654 | 0.732 | 1.19 | 1.16 | 0.853 | 0.365 | 0.876 | 0.725 | 0.683 |
| 0.951 | 0.812 | 0.447 | RLLVVYPWTKR [HBB_Y36_Q40K] | 0.829 | 0.613 | 0.418 | 0.547 | 0.45 | 0.485 | 0.475 | 0.602 | 0.694 | 0.612 | 0.735 | 0.678 | 0.583 |
| 0.855 | 0.954 | 0.844 | RLPSGYGLAYR [DLK1_Y262] | 0.61 | 0.479 | 0.464 | 0.555 | 0.418 | 0.295 | 0.46 | 0.414 | 1.32 | 0.385 | 0.627 | 0.315 | 0.39 |
| 0.894 | 0.526 | 0.387 | RLSVDYSKKSK [TUBA3E_Y161] | 0.553 | 0.34 | 1.09 | 0.442 | 0.35 | 0.247 | 0.408 | 0.433 | 0.373 | 0.461 | 0.515 | 0.389 | 0.36 |
| 0.926 | 0.821 | 0.759 | RREQDYTNLPS [CSF1R_Y923_R921Q] | 1.75 | 0.951 | 0.573 | 0.492 | 0.532 | 0.446 | 0.449 | 0.691 | 1.01 | 0.466 | 0.805 | 0.468 | 0.446 |
| 0.853 | 0.607 | 0.956 | RRGTGYTLPLP [MAGEC3_Y152_S155P] | 0.696 | 0.522 | 0.977 | 0.607 | 0.424 | 0.642 | 1.01 | 0.683 | 0.651 | 0.838 | 0.971 | 0.387 | 0.831 |
| 0.66 | 0.592 | 0.64 | RSRQIYDAFIM [GRK3_Y109_YF] | 0.48 | 0.7 | 2.49 | 6.86 | 9.57 | 8.83 | 0.359 | 9.12 | 0.339 | 7.46 | 0.51 | 2.6 | 6.12 |
| 0.902 | 0.797 | 0.638 | RVGVDYEGRGC [PLOD1_Y675_G678R] | 1.02 | 0.709 | 0.69 | 0.528 | 0.51 | 0.542 | 0.616 | 0.575 | 0.617 | 0.59 | 1.01 | 0.464 | 0.424 |
| 1.68 | 1.66 | 1.6 | RWGQKHMTAVV [CYBA_Y72_Y72H] | 1.39 | 0.74 | 0.516 | 0.5 | 0.692 | 0.699 | 2.7 | 0.81 | 0.483 | 0.587 | 1.13 | 0.559 | 0.496 |
| 0.827 | 0.695 | 0.338 | RWQQLYDTLNA [EIF3M_Y351_Q346R] | 1.45 | 0.848 | 1.95 | 7.68 | 3.35 | 5.67 | 2.43 | 0.788 | 0.574 | 6.56 | 1.32 | 2.02 | 3.71 |
| 0.972 | 1.37 | 0.593 | RYLKDYGEFEV [GINS1_Y156_C152Y] | 1.6 | 1.36 | 1.16 | 1 | 1 | 1.54 | 1.2 | 0.771 | 1.16 | 0.792 | 1.75 | 0.839 | 1.69 |
| 1.18 | 0.721 | 0.866 | SCRSKYVGLWG [KCNQ1_Y184_G179S] | 0.984 | 0.456 | 0.39 | 0.423 | 0.465 | 0.419 | 0.574 | 0.541 | 0.364 | 0.451 | 0.665 | 0.497 | 0.509 |
| 0.794 | 0.74 | 0.554 | SDVCMYRKNIF [SYNE2_Y570_YF] | 1.12 | 0.712 | 0.536 | 0.355 | 0.354 | 0.371 | 0.931 | 0.793 | 0.48 | 0.448 | 0.906 | 0.479 | 0.436 |
| 0.868 | 0.709 | 0.544 | SEDSEYFKAFE [CASQ2_Y178_YF] | 1.41 | 0.882 | 0.714 | 0.582 | 0.471 | 0.572 | 1.34 | 0.974 | 0.608 | 0.557 | 1.46 | 0.653 | 0.651 |
